{"source": "paper PMC4027171", "binders": {"B1": {"name": "human MUS81 (enzyme)", "chain": "MAAPVRLGRKRPLPACPNPLFVRWLTEWRDEATRSRRRTRFVFQKALRSLRRYPLPLRSGKEAKILQHFGDGLCRMLDERLQRHRTSGGDHAPDSPSGENSPAPQGRLAEVQDSSMPVPAQPKAGGSGSYWPARHSGARVILLVLYREHLNPNGHHFLTKEELLQRCAQKSPRVAPGSARPWPALRSLLHRNLVLRTHQPARYSLTPEGLELAQKLAESEGLSLLNVGIGPKEPPGEETAVPGAASAELASEAGVQQQPLELRPGEYRVLLCVDIGETRGGGHRPELLRELQRLHVTHTVRKLHVGDFVWVAQETNPRDPANPGELVLDHIVERKRLDDLCSSIIDGRFREQKFRLKRCGLERRVYLVEEHGSVHNLSLPESTLLQAVTNTQVIDGFFVKRTADIKESAAYLALLTRGLQRLYQGHTLRSRPWGTPGNPESGAMTSPNPLCSLLTFSDFNAGAIKNKAQSVREVFARQLMQVRGVSGEKAAALVDRYSTPASLLAAYDACATPKEQETLLSTIKCGRLQRNLGPALSRTLSQLYCSYGPLT"}}, "molecular_target": "human EME2 (His-EME2) (human)", "sequence (A4GXA9 whole entry)": "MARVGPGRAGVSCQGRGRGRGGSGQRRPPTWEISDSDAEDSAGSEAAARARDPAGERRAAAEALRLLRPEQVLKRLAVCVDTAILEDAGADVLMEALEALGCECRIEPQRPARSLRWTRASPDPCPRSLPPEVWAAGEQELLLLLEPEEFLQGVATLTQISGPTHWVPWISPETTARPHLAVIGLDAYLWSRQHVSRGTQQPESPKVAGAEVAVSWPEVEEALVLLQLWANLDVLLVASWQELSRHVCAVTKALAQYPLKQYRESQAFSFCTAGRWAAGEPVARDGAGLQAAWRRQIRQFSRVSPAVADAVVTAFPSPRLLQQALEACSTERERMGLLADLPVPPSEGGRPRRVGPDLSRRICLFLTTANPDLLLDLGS", "experiment": "co-purification of co-expressed subunits", "data": [{"binder": "B1", "values": [{"measurement": "stoichiometry N", "value": 1}]}]}
